Values joined by “and” are separate entries in the source; they are usually repeats but may differ in a detail not shown here. Equal values may be shown once.
Assays:
[1] = tested on: transplanted tumour from spontaneous tumour of neu protein over-expressed FVB/N transgenic mice; test: Anti-tumor effect of rhErbB3-f12 (Table 4); format: in vivo
Excerpt: (§1) Transplanted tumour model, after immunohistological screening test, about 1000 mm^3 tumour mass was cut down from spontaneous tumour of neu protein over-expressed FVB/N transgenic mice. The tumour mass was abraded into single cells with nylon net, the amount injected under the breast of each FVB/N transgenic mice was 5×10^6 cells.
(§2) Experiment on the therapeutic effect of various dosage of DE3-1 rhErbB3412 and rhErbB3-f78 on immune therapy against tumor.
(§3) Preparing animal and transplanted animal tumor model: The same as (Experiment on therapeutic effect of B3 and DE3-1 rhErbB3-f12 and rhErbB3-f78 vaccine on immune therapy against tumor). No treatment was given to the control group, histag protein was injected to the negative control group, and Adriamycin (Santou MingZhi Pharmaceuticals) was administered for the positive control group, 5 μg, 20 μg and 80 μg was given to DE3-1 group respectively.
(§4) Tumor weight was measured after completion of the experiment and tumor-inhibitory rate was calculated, tumor inhibitory rate=[(tumor weight of control group−tumor weight of experiment groups)/tumor weight of control group]×100.

[2] = tested on: transplanted tumour from spontaneous tumour of neu protein over-expressed FVB/N transgenic mice; test: Therapeutic effect of various dosage of DE3-1 in transplanted tumour model (Table 3); format: in vivo
Excerpt: as §1, §3
One day after the inoculation, Adriamycin 2.2 mg/kg was injected abdominally for consecutive 7 days in mice of the positive control group; histag protein+Al(OH)^3 was injected abdominally for mice of the negative control group; In DE3-1 group, the vaccine was absorbed on 0.1 mg of Al(OH)^3 and multi-points subcutaneous injection every 2 weeks for a total of 3 injections were carried out in mice. The experiment completed in 14 days after the third injection. Tumor development was monitored weekly, tumor size was measured with vernier and the size was expressed as (length diameter×short diameter 2/2), curve of tumor growth was protracted and analyzed statistically.
as §4

[3] = tested on: transplanted tumour from spontaneous tumour of neu protein over-expressed FVB/N transgenic mice; test: Anti-tumor effect of rhErbB3-f78 (Table 5); format: in vivo
Excerpt: as §1, §2, §3, §4

[4] = tested on: tumor development in FVB/N transgenic mice (neu protein over-expression, spontaneous breast cancer); test: Preventive effect of B3, DE3-1 on tumor development; format: in vivo; conditions: for Incidence of tumor growth / Time of tumor occurrence: injected abdominally every 20 days, 7 injections, 40 mice; for Tumor-inhibitory effect against the development of tumor, incidence versus negative control group: ×2 testing versus BSA + CFA control
Description: 8-10 weeks old FVB/N transgenic mice (bought from Jackson Lab USA) was selected as experiment animals, the mice were divided into 5 groups with 40 mice each, they were control group, B2, B3 and DE3-1 group; BSA, B2, SD32, B3, DE3-1 was mixed with Freud's adjuvant (CFA, complete Freud's adjuvant, bought from Sigma company) and injected abdominally every 20 days for 7 injections respectively to various groups. The dosage of BSA, B2, SD32, B3 and DE3-1 vaccine was 10, 5, 10, 1 and 10 μg/mouse/injection. Weekly monitor tumour development. The tumour development was verified and analysed statistically.
Objective of the present experiment is to explore whether there is preventive effect of B3 or DE3-1 vaccine on tumor development. The reason to choose this type of transgenic mice as experiment animal model, is because rat wild type neu cDNA controlled by mice breast virus promotor was transferred into the body of mice and produce over-expression of neu protein and spontaneous breast cancer occurred within 5-8 months in half of the mice. Natural course of tumor in the transgenic mice and its pathologic pattern is similar to that of human breast cancer. Therefore, it may have better therapeutic effect when used clinically. The sample contains 40 animals in each group, the aim of selecting such large sample is to ensure the number of cases which have the disorders will be greater than 10 animals, thus will be of greater implication statistically. The selection of dosage is based on the results of pre-experiments.

[5] = tested on: transplanted tumour from spontaneous tumour of neu protein over-expressed FVB/N transgenic mice; test: Therapeutic effect of B3 vaccine in transplanted tumour model (Table 2); format: in vivo
Description: as §1
Nothing was administrated in the control group; 24 hours after the inoculation, SD32 and B3 vaccine injection started in SD32 and B3 experiment groups, the aforementioned vaccines were absorbed on 0.1 mg/ml of Al(OH)3 respectively, and injected multi-pointedly every 2 weeks for a total of three injections; the experiment was completed in 14 days after the third injection. Morbidity was monitored weekly, tumor size was measured weekly with vernier. Volume (length diameter×short diameter 2/2) of the tumor was used to represent their size, and curve of tumor growth was protracted,
Tumor weight was measured after completion of the experiment and tumor-inhibitory rate was calculated, inhibitory rate=[(tumor weight of control group−tumor weight of experiment groups)/tumor weight of control group]×100.

B2 and B3 antigen = test: Cross immunity of B2 and B3 antigen (ELISA antibody titer); conditions: serum of immunized FVB transgenic mice, ELISA on wrapped B2 or B3 protein, 450 nm
Description: FVB transgenic mice were immuned with B2 protein and B3 protein respectively, 10 days thereafter, blood was withdrawn and antibody titer was tested with ELISA. 0.3 μg/hole of B2 and B3 was wrapped, 1:1000 B2 and B3 on each plate were titrated with standard serum respectively, cultured at 37° C. for 30 minutes, sealed with 1% BSA, added double antibody, color development for 15 minutes with DAD, tested with Bio-Rad 450 nm enzyme labeled device.

[6] = ADR 2.2 mg/kg injected abdominally for consecutive 7 days
[7] = 5 μg + Al(OH)3, subcutaneous every 2 weeks, 3 injections
[8] = 20 μg + Al(OH)3, subcutaneous every 2 weeks, 3 injections
[9] = 80 μg + Al(OH)3, subcutaneous every 2 weeks, 3 injections

In the case of `CC(=O)O[C@H]1C(=O)[C@@]2(C)[C@H]([C@H](OC(=O)c3ccccc3)[C@]3(O)C[C@H](OC(=O)[C@H](O)[C@@H](NC(=O)c4ccccc4)c4ccccc4)C(C)=C1C3(C)C)[C@]1(OC(C)=O)CO[C@@H]1C[C@@H]2O` [Taxol, reference compound], the Inhibitory rate ([1]; 10 mg/kg, ip X 7 qd) is reported as 44.32% and the Tumor weight ([1]; 10 mg/kg, ip X 7 qd) is reported as 3.09 ± 1.08 g.

`COc1cccc2c1C(=O)c1c(O)c3c(c(O)c1C2=O)C[C@@](O)(C(=O)CO)C[C@@H]3O[C@H]1C[C@H](N)[C@H](O)[C@H](C)O1` [ADR, Adriamycin, reference compound] was tested, and the Inhibitory rate [2, 6] was 25.3%, the Tumor size [2, 6] was 4603.1 ± 478.3 mm3 and the Tumor weight [2, 6] was 3.564 ± 0.42 g. It also gave an Inhibitory rate ([3]; 2 mg/kg, ip X 7 qd) of 40.98% and a Tumor weight ([3]; 2 mg/kg, ip X 7 qd) of 0.648 ± 0.27 g.

For “B3: protein of ErbB3 extra-cell membrane region (SEQ ID NO:2), flag-tagged, expressed by eucaryotic cells; anti-tumor vaccine”, the “Incidence of tumor growth” value ([4]; 5 μg/animal/dose + CFA) was 12.5%, the “Time of tumor occurrence” value ([4]; 5 μg/animal/dose + CFA) was 22 weeks and 20 weeks and the “Tumor-inhibitory effect against the development of tumor, incidence versus negative control group” value [4] was “significant tumor-inhibitory effect”. For the same molecule, the “Tumor-inhibitory effect (significance)” value ([5]; t testing, P<0.01) was “significant tumor-inhibitory effect”, the Inhibitory rate ([5]; vaccine + Al(OH)3, every 2 weeks, three injections) was 33% and the Tumor size ([5]; vaccine + Al(OH)3, every 2 weeks, three injections, 5 weeks) was 5271.8 ± 658.9 mm3. The Tumor weight ([5]; vaccine + Al(OH)3, every 2 weeks, three injections, at completion of experiment) was 3.13 ± 0.33 g and the “Cross immunity between B2 and B3 antigen” value (B2 and B3 antigen) was “there isn't any cross immunity”.

B1: DE3-1: extra-cell membrane ErbB3 protein segment (SEQ ID NO:3) expressed by E. coli, N end fused with Trx Tag, His Tag and S-Tag (protein, listed as Homo sapiens)
chain: MRANDALQVLGLLFSLARGSEVGNSQAVCPGTLNGLSVTGDAENQYQTLYKLYERCEVVMGNLEIVLTGHNADLSFLQWIREVTGYVLVAMNEFSTLPLPNLRVVRGTQVYDGKFAIFVMLNYNTNSSHALRQLRLTQLTEILSGGVYIEKNDKLCHMDTIDWRDIVRDRDAEIVVKDNGRSCPPCHEVC
modifications: N-terminal Trx, His, S tags
For B1, the “Incidence of tumor growth” value ([4]; 10 μg/animal/dose + CFA) was 35%, the “Time of tumor occurrence” value ([4]; 10 μg/animal/dose + CFA) was 23 weeks and the “Tumor-inhibitory effect against the development of tumor, incidence versus negative control group” value [4] was “not significantly different”. The Inhibitory rate [2, 7] was 22.4%, the Tumor size [2, 7] was 5563.7 ± 600.6 mm3 and the Tumor weight [2, 7] was 3.687 ± 0.45 g. The Tumor size [2, 8] was 4715.0 ± 434.8 mm3, the Tumor weight [2, 8] was 3.455 ± 0.41 g and the Inhibitory rate [2, 9] was 26.3%. It also gave a Tumor size [2, 9] of 4810.8 ± 460.5 mm3 and a Tumor weight [2, 9] of 3.658 ± 0.37 g.

B2: rhErbB3-f78: ErbB3 extra-cell membrane protein segment (SEQ ID NO:16) expressed by E. coli (protein, listed as Homo sapiens)
chain: MVCVASCPHNFVVDQTSCVRACPPDKMEVDKNGLKMCEPCGGLCPKACEGTGSGSRFQTVDSSNIDGFVNCTKILGNLDFLITGLNGDPWHKIPALDPEKLNVFRTVREITGYLNIQSWPPHMHNFSVFSNLTTIGGRSKLAAALEHHHHHH
B2 showed an Inhibitory rate ([3]; 2.5 mg/kg, sc X 3 q14d) of 60.38% and a Tumor weight ([3]; 2.5 mg/kg, sc X 3 q14d) of 0.435 ± 0.12 g.

B3: rhErbB3-f12: protein segment of ErbB3 extra-cell membrane region (SEQ ID NO:14) expressed by E. coli (protein, listed as Homo sapiens)
chain: MKYLLPTAAAGLLLLAAQPAMAMDIKHNRPRRDCVAEGKVCDPLCSSGGCWGPGPGQCLSCRNYSRGGVCVTHCNFLNGEPLEHHHHHH
B3 showed an Inhibitory rate ([1]; 0.25 mg/kg, sc X 3 q14d) of 58.39%, a Tumor weight ([1]; 0.25 mg/kg, sc X 3 q14d) of 2.31 ± 0.40 g and an Inhibitory rate ([1]; 0.5 mg/kg, sc X 3 q14d) of 52.61%. The Tumor weight ([1]; 0.5 mg/kg, sc X 3 q14d) was 2.62 ± 0.67 g, the Inhibitory rate ([1]; 1 mg/kg, sc X 3 q14d) was 56.76% and the Tumor weight ([1]; 1 mg/kg, sc X 3 q14d) was 2.40 ± 0.49 g.
